The values below come from a protein production outcome set (Wang et al. 2014).

The data set can be described thus: label from the status in PepcDB records.
With “MKDIYELLNDIDIDEKELEEIEASEIEKEKVKRNVKQSIRTKKKMKSWKKGVAAASILVGLSVTTLGIGFPTYAGGLPIVGDIFRFLDNGRTGLYENYKEFSTELNMTRESNGVKVTINDVISDGRTLSITYSLESEQDLGDDPIILGGLDIMDAHGSSGSGKMTKVTEKKYVGMVTTTHHDSNKKDKVNFRWNIEGIEIPDRKKSIQGHWNFALTVKSMDSKERTIGGSSEKEGIKANMEKVAMSPVSFILYYNQEVSKGARKEWDSVDVELTVKDDLGNDYSGEGNGGSGNDPYNIRWSATFQKLNENATKLIVTPRVHLRVHTPENHGGVEYVNGKEKKIEVPNKEAKKKDIVLDDIVIDLKK”, the protein production entry was “not failed”.

In the case of “MKDNTPASSPERWIIYGANGYTGELIAREAVKRGHHPILAGRSLEKVQSLAAELGLQSLAFSLEDKSSAVQHISGSSLVLNCAGPFSSTAKPMMKACLEAGAHYLDITGEISVFEFAQTLQSQAKEASVVLCSGVGFDVIPTDCIAATLKAALPDATHLSLGFDSRSGFSPGTAKTSVEGLAQGGKVRLNGKITTVPLAYKVHNIDFGDGEKLAMTIPWGDVSTAYYTTGIENIDVFIPGSPNMIKNAKRANWVRPLLGITWVQNLIKSRIERTVKGPNEEQRNQLPTYVWGKASNKLGQSKTARVQTANGYSLTVTGSLAIVEHLLHTKPEAGVYTPSKLMGSNFVSQLPGSSGITIEE”, the protein production result was “failed”.

Regarding “MKDSMFLYEFDLFRYSKDLTALSFLLLIGSSLTVHWVSLSMSSSRDLLHYLVLPLILVVILHEGLHALTAKLSGAKTSLGVLTKYGIILAVYVGINTPLPVKKIRYITIAPIIISIVAFFFSWVTYSPFWAILYIFNTTGIVGDLIVFLVLSKMPSDAIVVDEGTIMKSNAEFPEPYPSWFSKLIIGLAVLVFLYILTNIRIEFEVVGTLPNQTMPVNSHFE”, the protein production result was “failed”.

For “MKEDAGNPLHLTSLNHVSVLCRSVDESMNFYQKVLGFIPIRRPESLNFEGAWLFGHGIGIHLLCAPEPEKLPKKTAINPKDNHISFQCESMGVVEKKLEEMGIDYVRALVEEGGIQVDQLFFHDPDGFMIEICNCDSLPVVPLVGEMARSCSRVKLHQMVQPQPQTQIHQVVYP”, the protein production entry is given as “failed”.

As to “MKEELFKEKSRYITGFVLIIVADLILYADNLLLFWAVLGGIYAVGFSEALRLFQVKASFSLYLILVLSWVAAYFNGRPIECALISAMVMASVIAYQKAHHSEAILPFLYPGVGFFALFGVYKDFGAVAIIWLLVVVVASDVGAFFGGKLLGKTPFTPTSPNKTLEGALIGVVLASVLGSFVGMGKLSGGFFMALFFSFLIALVAVFGDLYESYLKRKVGIKDSGKILPGHGGVLDRLDSMLFGALGLHALLYFLEIWKETAVFLGD”, the protein production entry is “failed”.

In the case of “MKEIDELTIKEYGVDSRILMERAGISVVLAMEEELGNLSDYRFLVLCGGGNNGGDGFVVARNLLGVVKDVLVVFLGKKKTPDCEYNYGLYKKFGGKVVEQFEPSILNEFDVVVDAIFGTGLRGEITGEYAEIINLVNKSGKVVVSVDVPSGIDSNTGKVLRTAVKADLTVTFGVPKIGHILFPGRDLTGKLKVANIGHPVHLINSINRYVITREMVRSLLPERPRDSHKGTYGKVLIIAGSRLYSGAPVLSGMGSLKVGTGLVKLAVPFPQNLIATSRFPELISVPIDTEKGFFSLQNLQECLELSKDVDVVAIGPGLGNNEHVREFVNEFLKTLEKPAVIDADAINVLDTSVLKERKSPAVLTPHPGEMARLVKKTVGDVKYNYELAEEFAKENDCVLVLKSATTIVTDGEKTLFNITGNTGLSKGGSGDVLTGMIAGFIAQGLSPLEASTVSVYLHGFAAELFEQDERGLTASELLRLIPEAIRRLKE”, the protein production entry is given as “not failed”.

In the case of “MKEIQYEIVKEIAVLSASDSGYTKEINLISWNGREPKYDIRSFSPNREKCGKGITLNADEAAALLEALQKEVNSGD”, the protein production result is reported as “failed”.

For “MKEKVQSPELRFDGFTDGWEQRKFADFIDVKSGKDYKHLNSGSIPVYGTGGYMLSVDRALSDIDAIGFGRKGTIDKPYLLKAPFWTVDTFFYAVPKQNIDLQFSLSIF”, the protein production result is reported as “failed”.

Consider “MKELSKSDRTRQFIIESTAPVFNVKGLAGTSLTDLTEATNLTKGSIYGNFENKEAVAIAAFDYNWGHVKSVLTAKVQACNTYKEMLLVYSSMYNDADGSLFPVGGCPLLNTTIEADDTHDALRKKAGEAILSWKKNLVTIIKKGIQAKEFRPDTDVTKIAFSMIALVEGAILIHRATKNRAYSDYVFESLEDLIAGIEVKKK”, for which the protein production result was “not failed”.

For “MKENLELVEFFEYLLILVLNMLVASIVFLQEYCIGSIRLSHYRRIFATVMAIRSLVSIWIIYPMTATLLGTLNILVIQSIILLFLWGLMQCVKKYRGKWYITMIALIIYGLSCYFHIMYAKTV”, the protein production entry was “failed”.

On to “MKEQYRNQNTFLSMIDMDLIRRGLLHAIQDLVFIVKVMDDETFTYIYVNKIGMDYAKLSEECYGKTFSEVLPKDTAEILQVQYAKVASEVKAHTFCDVVSLPTGNLHYESSLNPVFDEEGVCQFIICITRDIT”, for which the protein production entry is “failed”.

Consider “MKFAFVFPGQGSQSVGMLNAFADVAVVRETLDEASDALGQDIGKLIADGPADELNLTTNTQPVMLTAAYACYRAWQQAGGAQPSIVAGHSLGEYTALVAAGAIAFRDALPLVRFRAQAMQTAVPVGVGGMAAILGLDDDTVRAVCAEASATGVVEAVNFNAPAQVVIAGTKAGIEKACEIAKEKGAKRALPLPVSAPFHSSLLKPASDKLREYLAGVDVKAPKISVVNNIDVAVVSDPAAIKDALVRQAAGPVRWVECVQHIAREGVTHVIECGPGKVLAGLTKRIDGNLVGASVFDPASLDEALKLAAA”, for which the protein production result is given as “not failed”.

For the sequence “MKFFQRTVLEPAYQGAQLHPGKLSGIYQNEILCNSLFHHYKQRTLKLGRELESRLKHLYHLVRMALPGTVSANTTRRSPANSIHTEVQIDSRTDTHLPQVSDDEDLRWIRTGLPHQYHAYLAIDRLKSSHHLAGQSVLCIGGRAALYPNYHQLIEAAGGHFMVFRGGAQDNSECLLALLARVDSIICPVDCINHEDFFTVRRYCQRTGKNCVMLERSDLVTFGKAVETLARGDCHNSETLEHHHHHH”, the protein production entry is recorded as “failed”.

Take “MKFGRRATSRTEPGKRCVARPRYNSAMSEFTDSAAGRSATSPADASSSALRRLRAIQPLPDQLISQIAAGEVVERPASVVKELVENALDAGAGTLRILLDEGGVKRISITDDGCGIPAAELPLALMRHATSKIRSLAELEAVATLGFRGEALASIASVAEMFITSRTEDDAHATRIDAQTGVLAPAAGTRGTTIEVRELYFSTPARRKFLKSEQTEFGHCLEMIRRAALARPDVAISVLHNGRAVEHWNASEPAARVAKILGDGFATAHLPLDERAGPLAVYGCAGLPTASRGRADQQYFFVNGRFVRDKLLTHAVRAAYEDVLHGDRYPSYVLFLDLPPEAVDVNVHPSKIEVRFRDSRSIHQFVFHAVQRALARHAGASPETTAGGHAAHLSPVEPAQAGSPAAPSASFVRPDAAAAGAGVGHPAPGNTWLRQSRMTQGTLPVAQPLALYDALFGRKDSGAGTPHGTTGVLEARDAPDAPGAPLFASAPGGAAMPAFSAAGASDPAMHDEQPLGFAVGQIHGIYVLAQNARGLVIVDMHAAHERILYEQFKRALADRTVAVQTLLIPVSMTATPVEVGTAEEERETLDALGFDLAVLSPTTLAIRAVPALLKDADLQALARAVLADLHAFGGSRVLTERQHELLGTLACHHAVRANRRLTLDEMNALLRQMEATERADQCNHGRPTWYQLTLGDLDKLFMRGQ”: the protein production result is “failed”.

On to “MKFILRLGLALLTGFVSVSTASAQAYGTADTNAPELRVPKSVQPAFDYWMRDTWATLGPDGYYYITGTTSTPDRHFPGQRHCWDWNDGLYLWRSKDLKIWEAMGRIWSMEKDGTWQKDPKVYKEGEKYAKKSINNDPMDNRFHAVWAPEMHYIKSAKNWFIVACMNQSAGGRGSFILRSTTGKPEGPYENIEGNEDKAIFPNIDGSLFEDTDGTVYFVGHNHYIARMKPDMSGLAEEIKTLKESKYSPEPYVEGAFIFKYDGKYHLVQAIWAHRTVKGDTYVEKEGLTNKKTRYSYDCIIATADNVYGPYGKRYNAITGGGHNNLFQDKDGNWWATMFFNPRGAQAAEYKVTCRPGLIPMLYENGKFKPNHNYQAK”, for which the protein production entry is given as “failed”.

Take “MKFIRRCMMETRYTVRQAVEMTGVKSYVLRYWEEELELQIHRNELGHRYYTGYDIQLFLNIKELKKRGLQLRAIKNLIPQITASMTGFGESASTLLEGEVIDHAEVKTDRDLKEKISKKDEGKNDKILEFQAILERLITQELKAQNEDEERCRSLDYAIRRQQLARKEAAAAAEKKSGRRRRDK”: the protein production result is “not failed”.

For “MKFKRLRTSENKLYYKAMELYKISFPFHEQRKSSLQEEILKNKEYQFNLIYDKNQFVGIILCWETDDFIYVEHFCIFPEMRNNRYGQRALELLNKKGKTIILEIDLPIDEISIYRKAFYERVKYKTNNYEHIHPPYHEKFNGHNLIVMSYPEKLSKMEYDKFNHYLRNNVMSF”, the protein production entry is “failed”.

On to “MKFLTTNFLKCSVKACDTSNDNFPLQYDGSKCQLVQDESIEFNPEFLLNIVDRVDWPAVLTVAAELGNNALPPTKPSFPSSIQELTDDDMAILNDLHTLLLQTSIAEGEMKCRNCGHIYYIKNGIPNLLLPPHLV”, for which the protein production entry was “failed”.

Turning to “MKFQLKRLAKKRPDRVQIKIQDGQFEIIGMGVWHSYWRDPYHLLLTIPWTGFLLLICLSYLAINLIFALAYWLGGDCIANAKPGNFLDLFFFSVQTLASIGYGAMYPKTLYANTVVTIEAMIGLVGIAVMTGLAFARFSRPSARVIFSRVAVITPYNDVPTLMFRTANQRRNLILEAQMRVYLMRDEITAEGGFIRRFHDLKLLRNQTPSFTLSWLALHPIDEFSPLYGMSAESLIQTNTNIIISVSGIDETVAQVVHARYTYTASNILWNSRFVDIFHHTSDGHRYIDYKYFHDVLPLDKIG”, the protein production entry is given as “failed”.

For the sequence “MKFRGNFVCQPRAGPAESRPTRPFTPRPSATGSLFMSNQHFVSPDLIRQGFSRAMSDMYREEVPLYGALMELVAEVNAQVLERQPALARHLQSSGELQRLDLERHGAIRVGSAAELATLARLFAVMGMQPVGYYDLTPAGVPVHSTAFRAVHEAALQVSPFRVFTSLLRLELIDNPELRSFAEQVLARRQIFTPQVLELIQQAEAAGGLDAEDAERFIRQALETFRWHHHATVTAAQYASLSAQHRLIADVVAFKGPHINHLTPRTLDIDEVQRLMPARGITPKAVIEGPPRRECPILLRQTSFKALEESVAFTDQAQSQGSHSARFGEIEQRGAALTPKGRELYDRLLNAARDALGDFPNEANAQRYNQLMQEHFREFPDSHPAMREQGLAYFRYFVSETGLAARNQPQRPTTLAALLAAGHLSAEPLVYEDFLPVSAAGIFQSNLGDDSQSHYAGQSNRQAFEAALGRPTLDELQLYAQTQQRSLEHCAATLGLPAL”, the protein production result is listed as “failed”.

Take “MKFSIIVPSYNSEKYIAELLNSLQNQSYDKKDFEVILVDDCSSDNTLNVVEAYKNKLNLIIKQLDTNSGGPGKPRNTALQLAQGEYVFFVDSDDYINKDTLKDVSKFVDQNHADVVLVKMEGVNGRGVPKSMFKETSDAVTLANSRIIYTLSPTKFYRTSLLRDHAIEFPEDLRSAEDQLFTMKAYVNAKRIAVLADKPYYYATKREGEHMSSAYVSPEDFYKVMSLITEEILNSPLENKNEVLGYFIDRHFSFSRTNNFSLKIADDKKEAWMDALGDFIQKVPTVVDELVNDSFKPLLHYARLKDMKHYQMVEESYKNGKFHSYSAQEGTLKIQFDEGEPYFVFKKLVKPDIRMSHFEFNDQGFELELEFISSIINPNHVASMIQLKLLSRNKKEFIYIPLTMNDQTRFKFKADLNDLMPYLIKEKVWDAHLEMRVDNMTIEKRIGNKRVKYPYSKETSTITQYNNQYYRFTPYFTKDFDNLSFYITSNKLNEMLAVEIKDKQTIQLRSLEFNYILSEGMTAVILPHMFTYGYLTSVTTKDTLTYHLSVGEKVKDKDLKKNFKIETPHLVLKYLEHHHHHH”: the protein production entry was “not failed”.
